Values quoted from earlier work, collected in PMC11381810.

Legend:
[1] = target: syntaxin-1 SNARE motif (Rattus norvegicus) (UniProt P32851); details: cited from earlier work
[2] = target: syntaxin-1 dimer SNARE motif (Rattus norvegicus) (UniProt P32851); details: cited from earlier work

syntaxin-1 dimer SNARE motif, sequence (P32851 191-253): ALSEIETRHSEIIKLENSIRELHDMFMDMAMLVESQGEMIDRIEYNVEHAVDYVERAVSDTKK
syntaxin-1 SNARE motif, sequence (P32851 191-253): as above

Row | Substance | Kd [1] | Kd [2]
1 | syntaxin-1 SNARE motif (from UniProt P32851) | 1.4 µM | 
2 | syntaxin-1 dimer SNARE motif (from UniProt P32851) |  | 12 µM
